Assay [1] concerns the target MrgX1 (Mas-related G-protein coupled receptor member X1) (UniProt Q96LB2). Nature of the assay: cell-based or functional assay.
The target of assay [2] is MrgX1 (Mas-related G-protein coupled receptor member X1) (UniProt Q96LB2 1-322, limits assumed). In words: cell-based or functional assay.
Assay [3] has as its target T1, Mas receptor (UniProt P04201 1-325, limits assumed).
T1 sequence (looked up): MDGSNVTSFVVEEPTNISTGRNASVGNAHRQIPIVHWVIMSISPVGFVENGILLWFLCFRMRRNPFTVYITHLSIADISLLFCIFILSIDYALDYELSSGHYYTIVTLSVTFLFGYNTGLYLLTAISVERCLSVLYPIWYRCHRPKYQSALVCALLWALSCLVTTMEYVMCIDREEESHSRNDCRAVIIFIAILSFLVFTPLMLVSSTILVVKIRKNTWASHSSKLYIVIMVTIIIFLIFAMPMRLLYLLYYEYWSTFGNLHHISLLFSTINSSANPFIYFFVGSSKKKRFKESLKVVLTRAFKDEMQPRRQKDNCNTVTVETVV
In words: cell-based or functional assay.

The target in assay [4] is T2, FPRL1 (FPR-related receptor 1) (UniProt P25090 1-351, limits assumed).
T2 construct: whole, on cells; Expressed in CHO cells (with Gα16 in the calcium flux assay); also called lipoxin A4 receptor; LXA4R
T2 sequence (looked up): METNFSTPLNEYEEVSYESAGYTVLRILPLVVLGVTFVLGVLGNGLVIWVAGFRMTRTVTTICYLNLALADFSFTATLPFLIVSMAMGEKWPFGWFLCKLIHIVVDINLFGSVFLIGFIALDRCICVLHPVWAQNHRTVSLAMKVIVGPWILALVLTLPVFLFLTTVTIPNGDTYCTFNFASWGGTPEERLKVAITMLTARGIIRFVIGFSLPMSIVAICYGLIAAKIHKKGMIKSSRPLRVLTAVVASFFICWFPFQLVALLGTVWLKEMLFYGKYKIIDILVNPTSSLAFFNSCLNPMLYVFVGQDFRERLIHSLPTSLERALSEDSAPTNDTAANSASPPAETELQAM
In words: competitive radioligand binding against 0.025 nM [125I] WKYMVm on FPRL1-transfected CHO cells, 90 min at 25 C. The procedure: The specific binding of Peptide 58 (SEQ ID NO:1) to FPRL1 was analyzed by testing its ability to compete with 0.025 nM [¹²⁵I] WKYMVm (W peptide), a known agonist of FPRL1, for binding to FPRL1 in CHO transfected cells. CKβ8-1 (aa 46-137), another known ligand of FPRL1 was used as a positive control in this assay (Chiang et al 2006, Pharmacological Reviews 58, 463-487). Peptides were incubated with cells for 90 minutes at 25° C., in the presence of Incubation Buffer (50 mM HEPES, pH 7.4, 100 mM NaCl, 5 mM KCl, 5 mM MgCl2, 2 mM Ca C12, 0.5% BSA) and the amount of radioactive W peptide was measured.

No end group written: not given here. Where only a bound is given, the exact number is not on record here.

A word on the IC50: it is the midpoint of a concentration-inhibition curve. As usually defined, the Ki is the dissociation constant of the complex between target and ligand, obtained from inhibition or displacement. High values mean a looser hold on the target, low ones a stronger hold on the target.

Sequence of MrgX1 (Mas-related G-protein coupled receptor member X1) (UniProt Q96LB2 1-322, limits assumed) (Q96LB2 whole entry): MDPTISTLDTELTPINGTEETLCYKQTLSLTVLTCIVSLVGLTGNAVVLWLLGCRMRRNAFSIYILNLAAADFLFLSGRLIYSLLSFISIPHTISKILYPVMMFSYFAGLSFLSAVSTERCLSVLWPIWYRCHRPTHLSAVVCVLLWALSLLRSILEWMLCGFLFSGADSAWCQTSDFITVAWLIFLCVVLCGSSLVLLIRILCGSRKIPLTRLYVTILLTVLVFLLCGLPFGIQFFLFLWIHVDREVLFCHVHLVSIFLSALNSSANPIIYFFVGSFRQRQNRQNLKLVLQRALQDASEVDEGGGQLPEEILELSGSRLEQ
Sequence of MrgX1 (Mas-related G-protein coupled receptor member X1) (UniProt Q96LB2) (Q96LB2 whole entry): as above

For the molecule “BAM22 (bovine adrenal medulla peptide 22) (from UniProt P01211 206-227)”, the EC50 (calcium flux dose response) in assay [1] was over 50 nM.

B1: Peptide 60_S (peptide)
peptide: GIGSVWHWKHRVATRFTLPRFLQ
On to B1, for which the “EC50 (calcium flux dose response)” value in assay [2] was at least 300 nM.

B2: Peptide 33_V (peptide)
peptide: SMVHRWSRAVLFPAAHRP
modifications: also: acetate salt
With B2, in assay [3], the “EC50 (calcium flux dose response)” value was at least 1000 nM.

B3: Peptide 58 (peptide)
peptide: TIPMFVPESTSKLQKFTSWFM-NH2
notes: Synthetic peptide (SPPS); also called P58; peptide P58
For B3, in assay [4], the IC50 was determined as 189 nM and the affinity, expressed as Ki, was 54.1 nM.

B4: Peptide 61_S (peptide)
peptide: FLGYSIYLNRKRRGDPAFKRRLRD
Regarding B4, the “EC50 (calcium flux dose response)” value in assay [3] was at least 500 nM.

The values are drawn from patent US20090054342A1 (COMPUGEN, published 2009).
